Measured values published in patent US20190134153A1, “IMMUNOMODULATORY EFFECT OF INHALED KINASE INHIBITOR PEPTIDES IN LUNG” (MOERAE MATRIX, INC., priority 2017, published 2019).

Legend:
Experiment in all cases: Kinase Profiling Assay
Assay type in all cases: biochemical
Settings in all cases: 100 μM
CaMKIIδ(h) = CaMKIIδ(h) (Homo sapiens, UniProt Q13557)
CK2(h) = CK2(h) (Homo sapiens, UniProt P68400)
MST3(h) = MST3(h) (Homo sapiens, UniProt Q9Y6E0)
WNK3(h) = WNK3(h) (Homo sapiens, UniProt Q9BYP7)
Sequence of WNK3(h) (Q9BYP7 whole entry): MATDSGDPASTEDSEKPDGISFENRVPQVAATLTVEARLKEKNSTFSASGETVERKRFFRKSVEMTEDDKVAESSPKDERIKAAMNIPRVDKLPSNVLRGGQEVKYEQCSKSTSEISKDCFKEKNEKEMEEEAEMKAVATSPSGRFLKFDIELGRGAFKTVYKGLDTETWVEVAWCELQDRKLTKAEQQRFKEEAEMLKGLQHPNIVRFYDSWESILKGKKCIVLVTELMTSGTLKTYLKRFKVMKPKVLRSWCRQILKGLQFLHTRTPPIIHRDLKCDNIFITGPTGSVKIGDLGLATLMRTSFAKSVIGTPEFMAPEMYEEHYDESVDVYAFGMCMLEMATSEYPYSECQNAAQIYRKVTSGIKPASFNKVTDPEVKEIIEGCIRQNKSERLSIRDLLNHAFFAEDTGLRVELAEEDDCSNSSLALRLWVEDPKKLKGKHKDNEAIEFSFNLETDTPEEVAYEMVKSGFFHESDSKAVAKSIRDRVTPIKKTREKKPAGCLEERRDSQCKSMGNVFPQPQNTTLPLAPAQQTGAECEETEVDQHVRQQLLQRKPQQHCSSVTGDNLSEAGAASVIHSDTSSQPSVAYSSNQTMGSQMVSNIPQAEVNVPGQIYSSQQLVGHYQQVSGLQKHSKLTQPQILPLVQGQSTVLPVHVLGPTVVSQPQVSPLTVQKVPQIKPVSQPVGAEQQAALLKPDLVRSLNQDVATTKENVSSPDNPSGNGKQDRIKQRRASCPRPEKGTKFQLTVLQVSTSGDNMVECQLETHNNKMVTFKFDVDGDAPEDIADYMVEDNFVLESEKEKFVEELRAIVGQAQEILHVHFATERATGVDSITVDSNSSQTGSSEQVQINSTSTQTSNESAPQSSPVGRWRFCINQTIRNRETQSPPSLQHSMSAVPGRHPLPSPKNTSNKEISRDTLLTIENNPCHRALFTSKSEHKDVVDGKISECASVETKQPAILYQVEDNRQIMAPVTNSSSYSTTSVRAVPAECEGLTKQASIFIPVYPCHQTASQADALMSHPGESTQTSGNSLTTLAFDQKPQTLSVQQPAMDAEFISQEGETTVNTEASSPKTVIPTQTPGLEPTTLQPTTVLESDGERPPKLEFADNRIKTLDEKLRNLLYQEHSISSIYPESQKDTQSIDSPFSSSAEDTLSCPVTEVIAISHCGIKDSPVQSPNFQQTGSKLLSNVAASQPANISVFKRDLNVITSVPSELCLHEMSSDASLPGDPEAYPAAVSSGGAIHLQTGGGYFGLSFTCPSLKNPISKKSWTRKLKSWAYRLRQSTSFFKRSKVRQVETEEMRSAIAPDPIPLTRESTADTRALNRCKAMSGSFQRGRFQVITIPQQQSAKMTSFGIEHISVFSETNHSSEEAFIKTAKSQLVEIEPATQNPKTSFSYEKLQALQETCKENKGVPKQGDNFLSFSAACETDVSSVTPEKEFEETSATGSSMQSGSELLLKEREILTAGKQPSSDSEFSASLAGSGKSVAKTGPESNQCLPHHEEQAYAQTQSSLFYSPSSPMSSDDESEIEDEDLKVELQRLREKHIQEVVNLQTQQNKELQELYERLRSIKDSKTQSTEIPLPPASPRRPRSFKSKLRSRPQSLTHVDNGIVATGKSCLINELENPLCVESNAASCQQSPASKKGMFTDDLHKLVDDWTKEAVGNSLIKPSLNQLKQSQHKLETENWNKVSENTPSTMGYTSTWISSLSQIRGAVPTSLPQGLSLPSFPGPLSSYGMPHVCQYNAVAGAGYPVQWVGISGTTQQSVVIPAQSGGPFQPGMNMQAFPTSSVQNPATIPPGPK

cKit(V654A)(h) = cKit(V654A)(h) (Homo sapiens, UniProt P10721, V654A)
Haspin(h) = target: T1, Haspin(h) (Homo sapiens, UniProt Q8TF76)
T1 sequence (Q8TF76 1-798): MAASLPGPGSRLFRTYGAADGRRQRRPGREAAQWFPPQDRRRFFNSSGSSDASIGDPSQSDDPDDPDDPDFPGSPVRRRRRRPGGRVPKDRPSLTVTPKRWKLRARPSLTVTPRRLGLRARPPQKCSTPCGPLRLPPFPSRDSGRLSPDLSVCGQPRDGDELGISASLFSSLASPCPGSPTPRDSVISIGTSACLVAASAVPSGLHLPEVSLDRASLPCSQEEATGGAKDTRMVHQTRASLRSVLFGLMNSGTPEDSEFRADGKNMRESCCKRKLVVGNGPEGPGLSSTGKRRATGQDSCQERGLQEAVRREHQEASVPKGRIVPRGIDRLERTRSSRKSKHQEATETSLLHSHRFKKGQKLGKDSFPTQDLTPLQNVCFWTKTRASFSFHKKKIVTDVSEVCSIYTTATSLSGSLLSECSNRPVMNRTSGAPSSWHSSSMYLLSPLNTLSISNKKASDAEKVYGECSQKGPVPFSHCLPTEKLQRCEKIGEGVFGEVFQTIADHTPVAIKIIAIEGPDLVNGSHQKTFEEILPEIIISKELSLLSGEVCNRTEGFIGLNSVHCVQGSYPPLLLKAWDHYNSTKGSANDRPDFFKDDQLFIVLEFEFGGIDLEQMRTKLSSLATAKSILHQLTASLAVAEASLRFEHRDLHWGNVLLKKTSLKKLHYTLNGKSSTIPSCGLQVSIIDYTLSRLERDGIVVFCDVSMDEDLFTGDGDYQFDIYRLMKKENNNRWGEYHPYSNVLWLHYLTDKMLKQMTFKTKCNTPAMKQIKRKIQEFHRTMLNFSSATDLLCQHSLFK

cKit(D816H)(h) = cKit(D816H)(h) (Homo sapiens, UniProt P10721, D816H)
CK1δ(h) = CK1δ(h) (Homo sapiens, UniProt P48730)
Sequence of CK1δ(h) (P48730 whole entry): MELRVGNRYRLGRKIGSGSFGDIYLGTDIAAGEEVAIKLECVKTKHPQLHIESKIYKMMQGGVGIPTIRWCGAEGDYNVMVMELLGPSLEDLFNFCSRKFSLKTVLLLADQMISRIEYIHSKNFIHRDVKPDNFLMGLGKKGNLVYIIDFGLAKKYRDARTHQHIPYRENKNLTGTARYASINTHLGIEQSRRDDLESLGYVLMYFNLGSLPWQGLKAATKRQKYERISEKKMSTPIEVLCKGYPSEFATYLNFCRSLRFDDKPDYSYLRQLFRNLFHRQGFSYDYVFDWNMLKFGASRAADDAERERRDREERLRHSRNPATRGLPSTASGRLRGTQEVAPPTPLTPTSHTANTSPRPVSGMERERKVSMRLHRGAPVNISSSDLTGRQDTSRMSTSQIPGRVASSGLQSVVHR

EGFR(T790M, L858R)(h) = EGFR(T790M, L858R)(h) (Homo sapiens, UniProt P00533, L858R/T790M)
Pim-1(h) = Pim-1(h) (Homo sapiens, UniProt P11309)
Sequence of Pim-1(h) (P11309 whole entry): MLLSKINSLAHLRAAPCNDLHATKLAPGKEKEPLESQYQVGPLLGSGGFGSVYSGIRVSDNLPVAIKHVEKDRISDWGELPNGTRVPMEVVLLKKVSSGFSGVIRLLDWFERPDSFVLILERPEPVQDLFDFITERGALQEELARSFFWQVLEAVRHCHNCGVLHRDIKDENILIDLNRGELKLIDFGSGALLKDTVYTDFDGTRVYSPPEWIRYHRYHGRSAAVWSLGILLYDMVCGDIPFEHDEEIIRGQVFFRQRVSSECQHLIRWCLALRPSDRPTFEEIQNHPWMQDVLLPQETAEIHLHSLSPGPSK

Yes(h) = Yes(h) (Homo sapiens, UniProt P07947)
PKCμ(h) = target: T2, PKCμ(h) (Homo sapiens, UniProt Q15139)
T2 sequence (Q15139 1-912): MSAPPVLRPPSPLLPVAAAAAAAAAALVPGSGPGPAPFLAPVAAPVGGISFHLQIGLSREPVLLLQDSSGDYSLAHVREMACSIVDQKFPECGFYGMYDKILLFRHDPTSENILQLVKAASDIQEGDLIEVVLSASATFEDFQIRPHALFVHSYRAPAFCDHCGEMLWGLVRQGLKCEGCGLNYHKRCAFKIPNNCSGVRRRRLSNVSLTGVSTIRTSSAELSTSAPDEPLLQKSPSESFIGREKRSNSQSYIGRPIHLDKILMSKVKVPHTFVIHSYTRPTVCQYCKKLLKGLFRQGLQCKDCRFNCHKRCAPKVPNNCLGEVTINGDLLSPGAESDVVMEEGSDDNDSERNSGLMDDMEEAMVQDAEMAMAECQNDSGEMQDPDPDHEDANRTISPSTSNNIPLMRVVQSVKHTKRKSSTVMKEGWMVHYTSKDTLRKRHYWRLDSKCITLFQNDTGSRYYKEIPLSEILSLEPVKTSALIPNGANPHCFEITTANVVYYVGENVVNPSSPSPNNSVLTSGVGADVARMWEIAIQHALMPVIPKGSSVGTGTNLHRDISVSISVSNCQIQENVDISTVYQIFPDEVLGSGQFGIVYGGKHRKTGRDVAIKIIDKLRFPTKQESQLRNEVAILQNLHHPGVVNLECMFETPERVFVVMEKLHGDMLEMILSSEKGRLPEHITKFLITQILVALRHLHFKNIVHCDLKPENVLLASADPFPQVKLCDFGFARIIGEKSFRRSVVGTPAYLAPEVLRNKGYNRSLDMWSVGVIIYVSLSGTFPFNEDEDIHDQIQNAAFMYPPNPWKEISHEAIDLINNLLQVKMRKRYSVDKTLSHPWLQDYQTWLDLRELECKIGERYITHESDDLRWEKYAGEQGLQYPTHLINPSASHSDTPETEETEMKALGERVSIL

LIMK1(h) = LIMK1(h) (Homo sapiens, UniProt P53667)
SAPK2a(h) = SAPK2a(h) (Homo sapiens, UniProt Q16539)
Sequence of SAPK2a(h) (Q16539 whole entry): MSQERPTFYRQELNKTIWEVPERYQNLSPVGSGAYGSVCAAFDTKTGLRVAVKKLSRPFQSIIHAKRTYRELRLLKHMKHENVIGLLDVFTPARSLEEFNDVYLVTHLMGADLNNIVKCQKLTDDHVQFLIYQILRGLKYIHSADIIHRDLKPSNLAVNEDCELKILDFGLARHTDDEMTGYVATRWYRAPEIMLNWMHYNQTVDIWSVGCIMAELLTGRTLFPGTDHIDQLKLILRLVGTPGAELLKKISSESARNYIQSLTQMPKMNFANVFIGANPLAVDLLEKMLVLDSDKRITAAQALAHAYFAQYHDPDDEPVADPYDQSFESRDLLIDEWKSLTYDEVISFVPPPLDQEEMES

CHK2(I157T)(h) = CHK2(I157T)(h) (Homo sapiens, UniProt O96017, I157T)
Sequence of CHK2(I157T)(h) (O96017 whole entry I157T): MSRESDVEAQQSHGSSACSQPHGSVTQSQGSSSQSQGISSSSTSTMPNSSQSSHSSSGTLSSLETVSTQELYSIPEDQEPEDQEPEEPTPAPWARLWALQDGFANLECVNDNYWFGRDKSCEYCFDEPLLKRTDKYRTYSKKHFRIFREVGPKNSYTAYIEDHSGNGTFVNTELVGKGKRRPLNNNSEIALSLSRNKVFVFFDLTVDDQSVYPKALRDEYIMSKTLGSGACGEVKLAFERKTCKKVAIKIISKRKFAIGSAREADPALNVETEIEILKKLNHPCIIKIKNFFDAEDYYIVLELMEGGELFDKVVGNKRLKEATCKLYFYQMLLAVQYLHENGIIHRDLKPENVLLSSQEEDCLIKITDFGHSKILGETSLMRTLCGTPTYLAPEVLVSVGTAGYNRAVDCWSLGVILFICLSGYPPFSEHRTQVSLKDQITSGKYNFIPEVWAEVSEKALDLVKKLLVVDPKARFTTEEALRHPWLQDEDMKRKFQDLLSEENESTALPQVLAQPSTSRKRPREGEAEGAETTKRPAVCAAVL

Pim-3(h) = Pim-3(h) (Homo sapiens, UniProt Q86V86)
NEK7(h) = NEK7(h) (Homo sapiens, UniProt Q8TDX7)
Sequence of NEK7(h) (Q8TDX7 whole entry): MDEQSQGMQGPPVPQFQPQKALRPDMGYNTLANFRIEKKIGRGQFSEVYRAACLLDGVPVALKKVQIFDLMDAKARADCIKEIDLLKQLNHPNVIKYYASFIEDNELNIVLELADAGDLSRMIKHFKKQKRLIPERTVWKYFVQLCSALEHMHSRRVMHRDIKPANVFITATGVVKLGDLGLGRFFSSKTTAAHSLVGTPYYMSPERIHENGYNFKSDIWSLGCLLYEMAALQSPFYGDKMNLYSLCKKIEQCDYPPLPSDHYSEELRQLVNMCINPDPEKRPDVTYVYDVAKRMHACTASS

Sequence of CK2(h) (P68400 whole entry): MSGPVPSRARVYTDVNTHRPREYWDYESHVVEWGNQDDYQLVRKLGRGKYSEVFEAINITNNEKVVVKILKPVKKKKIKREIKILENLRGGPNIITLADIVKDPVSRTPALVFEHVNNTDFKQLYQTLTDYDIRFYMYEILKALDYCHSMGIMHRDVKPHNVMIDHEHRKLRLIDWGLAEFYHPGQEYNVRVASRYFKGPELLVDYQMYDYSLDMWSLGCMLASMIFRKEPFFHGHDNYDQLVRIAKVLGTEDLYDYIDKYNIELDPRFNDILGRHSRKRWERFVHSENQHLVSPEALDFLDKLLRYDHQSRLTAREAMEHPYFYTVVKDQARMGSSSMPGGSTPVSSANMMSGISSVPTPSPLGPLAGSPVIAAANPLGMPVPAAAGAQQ
Sequence of CK2(h) (P67870 whole entry partner): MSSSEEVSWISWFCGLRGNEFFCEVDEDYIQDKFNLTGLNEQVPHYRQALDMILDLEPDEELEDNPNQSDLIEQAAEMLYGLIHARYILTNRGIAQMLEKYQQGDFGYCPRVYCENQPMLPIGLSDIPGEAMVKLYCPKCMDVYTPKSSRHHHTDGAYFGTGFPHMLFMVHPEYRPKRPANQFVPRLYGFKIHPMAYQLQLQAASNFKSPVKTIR

Sequence	% activity (CaMKIIδ(h))	% activity (CK2(h))	% activity (MST3(h))	% activity (WNK3(h))	% activity (cKit(V654A)(h))	% activity (Haspin(h))	% activity (cKit(D816H)(h))	% activity (CK1δ(h))	% activity (EGFR(T790M, L858R)(h))	% activity (Pim-1(h))	% activity (Yes(h))	% activity (PKCμ(h))	% activity (LIMK1(h))	% activity (SAPK2a(h))	% activity (CHK2(I157T)(h))	% activity (Pim-3(h))	% activity (NEK7(h))
FAKLAARLYRKALARQLGVAA [MMI-0300]	1%	90%	45%	77%	134%	48%	126%	92%	85%	8%	67%	22%	88%	90%	43%	80%	84%
KAFAKLAARLYRKALARQLGVAA [MMI-0400]	2%	101%	36%	74%	150%	36%	143%	93%	78%	7%	14%	14%	92%	85%	41%	80%	87%
YARAAARQARAKALNRQLGVA [MMI-0200]	2%	83%	95%	97%		71%		92%	108%	18%	93%	73%			85%	94%	96%
HRRIKAWLKKIKALARQLGVAA [MMI-0500]	1%	93%	4%	9%	223%	25%	194%	78%	53%	0%		10%	87%	52%	3%	37%	89%
